For two substances, stoichiometry N (subunits per ring) and stoichiometry N results are on record in publication PMC5777263.

The target in experiment [1] is Cupriavidus metallidurans Betaproteobacteria proteasome homolog (Cm-BPH) (Cupriavidus metallidurans). As to the kind of experiment: negative-stain electron microscopy; 0.1 mg/ml protein, 1% uranyl acetate, particles classified and averaged (EMAN2).
For experiment [2] the target is unchanged. Put plainly: AUC + SEC-MALS; sedimentation velocity: 0.5 mg/ml protein in buffer A, 20 °C, 40,000 rpm; SEC-coupled multiangle light scattering; self-assembly. A general note: Size exclusion chromatography separates by hydrodynamic size, large species first.
Experiment [3] has the same target. Put plainly: crystal structure; Cm-BPH, space group P6, 2.1 Å, two monomers in the ASU; dodecamer called non-native, malonate molecules intercalated in the intersubunit clefts.
Experiment [4] has the same target. Put plainly: SEC-SAXS; Shodex Kw-403 column, 20 °C, 20 mM HEPES-NaOH pH 8.0, 150 mM NaCl, 2 mM TCEP, 1% sucrose; Cm-BPH 8.25 mg/ml, Td-BPH 15 mg/ml; profiles fitted with dodecameric and tetradecameric crystal models (FoXS).
In experiment [5] the target is Thiobacillus denitrificans Betaproteobacteria proteasome homolog (Td-BPH) (Thiobacillus denitrificans). Put plainly: crystal structure; Td-BPH apo: hexagonal form P6(1)22 (100 mM sodium acetate pH 4.8, 1.2 M sodium nitrate) and orthorhombic form P2(1)2(1)2(1) (100 mM HEPES-NaOH pH 7.0, 600 mM NaF), 2.3 Å.
Experiment [6] shares this target. As to the kind of experiment: negative-stain electron microscopy; 0.1 mg/ml protein, 1% uranyl acetate, particles classified and averaged (EMAN2).
For experiment [7] the target is unchanged. Put plainly: AUC + SEC-MALS; sedimentation velocity: 0.5 mg/ml protein in buffer A, 20 °C, 40,000 rpm; SEC-coupled multiangle light scattering; self-assembly.
Experiment [8] shares this target. Put plainly: SEC-SAXS; Shodex Kw-403 column, 20 °C, 20 mM HEPES-NaOH pH 8.0, 150 mM NaCl, 2 mM TCEP, 1% sucrose; Cm-BPH 8.25 mg/ml, Td-BPH 15 mg/ml; profiles fitted with dodecameric and tetradecameric crystal models (FoXS).

Broadly, the stoichiometry N is a count of units in the complex or per binding partner.

“Cupriavidus metallidurans Betaproteobacteria proteasome homolog (Cm-BPH) (enzyme)”: in experiment [1], the stoichiometry N (subunits per ring) was 7. Also, the stoichiometry N in experiment [2] turned out to be 13.8 subunits; in experiment [3] it was 12 subunits; in experiment [4], 14 subunits.

For the substance “Thiobacillus denitrificans Betaproteobacteria proteasome homolog (Td-BPH) (enzyme)”, the stoichiometry N in experiment [5], in experiment [7] and in experiment [8] was 14 subunits throughout. Moreover, in experiment [6], the stoichiometry N (subunits per ring) stood at 7.
